Test results taken from patent EP4768503A1.

Target: amyloid precursor protein (APP) on HEK293-APP stable transfected cells (UniProt P05067)
Test: flow cytometry on HEK293-APP cells, four-parameter fit of MFI

Sequence of amyloid precursor protein (APP) on HEK293-APP stable transfected cells (P05067 18-770): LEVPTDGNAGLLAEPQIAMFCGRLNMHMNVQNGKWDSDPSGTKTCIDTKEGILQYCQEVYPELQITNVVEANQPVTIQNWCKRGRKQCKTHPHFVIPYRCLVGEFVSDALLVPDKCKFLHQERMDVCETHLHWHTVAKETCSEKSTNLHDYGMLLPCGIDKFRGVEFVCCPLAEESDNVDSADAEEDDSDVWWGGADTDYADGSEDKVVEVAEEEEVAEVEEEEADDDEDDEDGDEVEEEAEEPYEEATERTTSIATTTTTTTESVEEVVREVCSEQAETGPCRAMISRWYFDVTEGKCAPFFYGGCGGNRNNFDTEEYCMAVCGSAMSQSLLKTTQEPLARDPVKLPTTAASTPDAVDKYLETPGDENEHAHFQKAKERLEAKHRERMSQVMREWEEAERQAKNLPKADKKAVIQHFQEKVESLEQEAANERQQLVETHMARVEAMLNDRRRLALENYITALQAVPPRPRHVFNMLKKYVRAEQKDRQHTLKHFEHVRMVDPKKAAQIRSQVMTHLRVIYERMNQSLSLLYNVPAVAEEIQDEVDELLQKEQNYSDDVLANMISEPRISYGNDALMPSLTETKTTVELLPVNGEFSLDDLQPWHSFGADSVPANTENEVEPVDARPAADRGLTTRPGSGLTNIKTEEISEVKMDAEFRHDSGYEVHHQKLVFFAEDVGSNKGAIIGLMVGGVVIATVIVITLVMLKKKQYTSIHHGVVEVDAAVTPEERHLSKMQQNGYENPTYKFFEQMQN

EC50: 6.83 nM
Substance: Lecanemab (antibody)
